Here are results for 80 sequences from the supplement of paper PMC7877785.

The nature of this data set: self-splicing fitness, log relative to wild type (ln ratio); higher = more splicing; Tetrahymena group I intron in knt gene, E. coli kanamycin selection, DiMSum; sequences stand for … in CUCUCU…GGAGGGAAAAGUUAUCAGGCAUGCACCUGGUAGCUAGUCUUUAAACCAAUAGAUUGCAUCGGUUUAAAAGGCAAGACCGUCAAAUUGCGGGAAAGGGGUCAACAGCCGUUCAGUACCAAGUCUCAGGGGAAACUUUGAGAUGGCCUUGCAAAGGGUAUGGUAAUAAGCUGACGGACAUGGUCCUAACCACGCAGCCAAGUCCUAAGUCAACAGAUCUUCUGUUGAUAUGGAUGCAGUUCACAGACUAAAUGUCGGUCGGGGAAGAUGUAUUCUUCUCAUAAGAUAUAGUCGGACCUCUCCUUAAUGGGAGCUAGCGGAUGAAGUGAUGCAACACUGGAGCCGCUGGGAACUAAUUUGUAUGCGAAAGUAUAUUGAUUAGUUUUGGAGUACUCGUGGUCG
The method, boiled down:
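The eight P1ex-region nucleotides of an intron in the knt kanamycin-resistance gene on pET-22b(+) were all randomised and the library put into E. coli BL21(DE3). Six replicate transformations were grown overnight at 37°C or 30°C on LB agar with or without 25 μg/mL kanamycin, together with 100 μg/mL carbenicillin, 50 μM IPTG and 0.2% rhamnose. Colonies were pooled and amplicon-sequenced on an Illumina HiSeq 2500. Fitness from DiMSum is the error-weighted combination of wild-type-normalised replicate fold changes, kanamycin over none.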

± gives the uncertainty stated by the source.

As for CAUGAGCAAUAUUACGGUAA, the “self-splicing fitness (ln)” value (37 °C) was -2.65 ± 0.34. Consider GUUAAGCAAUAUUACGACGC, for which the “self-splicing fitness (ln)” value (30 °C) was -1.05 ± 0.24 and the “self-splicing fitness (ln)” value (37 °C) was -0.36 ± 0.21.

Regarding ACGAAGCAAUAUUACGAACA, the “self-splicing fitness (ln)” value is -1.62 ± 0.13 (30 °C) and -0.229 ± 0.11 (37 °C).

On to UAAAAGCAAUAUUACGACUU, for which the “self-splicing fitness (ln)” value is -0.473 ± 0.098 (30 °C) and -0.07 ± 0.15 (37 °C). Turning to CAUUAGCAAUAUUACGACCA, the “self-splicing fitness (ln)” value (30 °C) is -2.56 ± 0.42 and the “self-splicing fitness (ln)” value (37 °C) was -1.67 ± 0.37.

For the sequence UGAAAGCAAUAUUACGUUUU, the “self-splicing fitness (ln)” value by setting is: (30 °C) -3.67 ± 0.18; (37 °C) -3.41 ± 0.35.

For GGUAAGCAAUAUUACGGGAG, under “37 °C”, the “self-splicing fitness (ln)” value was -2.88 ± 0.34.

Regarding UCGAAGCAAUAUUACGCAUG, the “self-splicing fitness (ln)” value was -1.2 ± 0.085 (30 °C) and -0.698 ± 0.1 (37 °C). As to AGGGAGCAAUAUUACGCGUU, the “self-splicing fitness (ln)” value (37 °C) was -2.46 ± 0.44. For the sequence AGAUAGCAAUAUUACGCUGG, the “self-splicing fitness (ln)” value by setting is: (30 °C) -3.38 ± 0.34; (37 °C) -1.56 ± 0.25. For CGUAAGCAAUAUUACGAUAU, in that order: -2.95 ± 0.14 and -2.77 ± 0.2. For GGGCAGCAAUAUUACGUUCA, in that order: -0.593 ± 0.075 and -0.158 ± 0.12.

CUAAAGCAAUAUUACGUGGU: the “self-splicing fitness (ln)” value (30 °C) was -3.41 ± 0.12 and the “self-splicing fitness (ln)” value (37 °C) was -2.73 ± 0.15. For ACACAGCAAUAUUACGUGGC, in that order: -3.54 ± 0.23 and -0.291 ± 0.13. On to CAAUAGCAAUAUUACGAUGC, for which the “self-splicing fitness (ln)” value runs as follows: (30 °C) -3.6 ± 0.24; (37 °C) -2.23 ± 0.23. On to GAGCAGCAAUAUUACGACUC, for which the “self-splicing fitness (ln)” value is -2.56 ± 0.19 (30 °C) and 0.053 ± 0.17 (37 °C). For UCACAGCAAUAUUACGUCGA, in that order: -0.572 ± 0.068 and -0.734 ± 0.08. For the sequence UUGUAGCAAUAUUACGUGAG, the “self-splicing fitness (ln)” value by setting is: (30 °C) -0.904 ± 0.076; (37 °C) -0.739 ± 0.11. For CCACAGCAAUAUUACGAGGG, in that order: -3.22 ± 0.12 and -3.11 ± 0.22.

Turning to GCGUAGCAAUAUUACGCGCA, the “self-splicing fitness (ln)” value (37 °C) was -1.07 ± 0.35.

On to GAUUAGCAAUAUUACGGGUG, for which the “self-splicing fitness (ln)” value was -1.52 ± 0.097 (30 °C) and -0.58 ± 0.12 (37 °C). For ACGUAGCAAUAUUACGCUUU, the “self-splicing fitness (ln)” value (30 °C) was -1.92 ± 0.058 and the “self-splicing fitness (ln)” value (37 °C) is -1.11 ± 0.075. UCGAAGCAAUAUUACGCUGU: the “self-splicing fitness (ln)” value runs as follows: (30 °C) -2.33 ± 0.21; (37 °C) -2.06 ± 0.33. For AUAAAGCAAUAUUACGUAAA, in that order: -2.39 ± 0.11 and -1.03 ± 0.12. For GCAAAGCAAUAUUACGACUG, in that order: -1.3 ± 0.13 and -0.673 ± 0.15.

For CGGCAGCAAUAUUACGAUCA, the “self-splicing fitness (ln)” value by setting is: (30 °C) -1.08 ± 0.11; (37 °C) -0.194 ± 0.11. For UACGAGCAAUAUUACGGAUG, in that order: -2.95 ± 0.43 and -1.27 ± 0.34. Turning to AGCCAGCAAUAUUACGUCAG, the “self-splicing fitness (ln)” value is -3.58 ± 0.17 (30 °C) and -2.77 ± 0.23 (37 °C). For ACUAAGCAAUAUUACGGCCA, in that order: -0.942 ± 0.13 and 0.00289 ± 0.13. For AUACAGCAAUAUUACGGACG, in that order: -1.61 ± 0.091 and -1.04 ± 0.098. Regarding UACGAGCAAUAUUACGAAGG, the “self-splicing fitness (ln)” value (37 °C) was -0.765 ± 0.3. Turning to AUUUAGCAAUAUUACGGGAC, the “self-splicing fitness (ln)” value (30 °C) is -2.36 ± 0.32 and the “self-splicing fitness (ln)” value (37 °C) is -1.32 ± 0.26. For GUAGAGCAAUAUUACGCCUC, in that order: -0.746 ± 0.27 and -0.67 ± 0.37. Regarding CUAUAGCAAUAUUACGAUGU, the “self-splicing fitness (ln)” value by setting is: (30 °C) -3.67 ± 0.4; (37 °C) -3.04 ± 0.43. AGUUAGCAAUAUUACGUAGC: the “self-splicing fitness (ln)” value is -3.86 ± 0.26 (30 °C) and -0.803 ± 0.14 (37 °C).

UGUAAGCAAUAUUACGGCCA: the “self-splicing fitness (ln)” value is -0.0492 ± 0.076 (30 °C) and -0.0953 ± 0.12 (37 °C).

For AAAUAGCAAUAUUACGUCAU, the “self-splicing fitness (ln)” value reads like this: (30 °C) -2.45 ± 0.08; (37 °C) -1.51 ± 0.11. For CGCAAGCAAUAUUACGACAC, the “self-splicing fitness (ln)” value is -2.89 ± 0.29 (30 °C) and -0.474 ± 0.22 (37 °C). For GCCUAGCAAUAUUACGUGCA, in that order: -2.35 ± 0.12 and -0.937 ± 0.1. For CAUGAGCAAUAUUACGUGUC, in that order: -2.98 ± 0.17 and -1.82 ± 0.22.

AGAGAGCAAUAUUACGACCA: the “self-splicing fitness (ln)” value (37 °C) is -0.796 ± 0.48. On to UUGUAGCAAUAUUACGCAAU, for which the “self-splicing fitness (ln)” value (30 °C) was -2.98 ± 0.34. For UCGUAGCAAUAUUACGCUUG, the “self-splicing fitness (ln)” value was -2.53 ± 0.17 (30 °C) and -0.409 ± 0.14 (37 °C). For AUUUAGCAAUAUUACGAUAA, in that order: -1.53 ± 0.2 and -0.502 ± 0.39. ACGGAGCAAUAUUACGUGGG: the “self-splicing fitness (ln)” value by setting is: (30 °C) -3.99 ± 0.18; (37 °C) -2.29 ± 0.15. On to AUGGAGCAAUAUUACGGUUC, for which the “self-splicing fitness (ln)” value by setting is: (30 °C) -3.93 ± 0.42; (37 °C) -2.56 ± 0.38. For ACACAGCAAUAUUACGCUAG, in that order: -1.41 ± 0.075 and -1.06 ± 0.092.

For UAUGAGCAAUAUUACGUAGC, the “self-splicing fitness (ln)” value by setting is: (30 °C) -3.71 ± 0.3; (37 °C) -2.5 ± 0.29. With GCCAAGCAAUAUUACGUCUA, the “self-splicing fitness (ln)” value is, setting by setting: (30 °C) -1.15 ± 0.11; (37 °C) -1.08 ± 0.1. For UGCAAGCAAUAUUACGCUGU, in that order: -3.03 ± 0.19 and -2.93 ± 0.33.

With GUAAAGCAAUAUUACGCCAC, where the note is “37 °C”, the “self-splicing fitness (ln)” value is -1.86 ± 0.24. For the sequence AGAGAGCAAUAUUACGAAUA, for the setting “37 °C”, the “self-splicing fitness (ln)” value was -0.719 ± 0.49.

For the sequence CGAGAGCAAUAUUACGUUAU, the “self-splicing fitness (ln)” value runs as follows: (30 °C) -3.57 ± 0.28; (37 °C) -2.8 ± 0.28. With GGCUAGCAAUAUUACGACCG, the “self-splicing fitness (ln)” value (30 °C) is -0.745 ± 0.14 and the “self-splicing fitness (ln)” value (37 °C) was -0.188 ± 0.21. As for UAACAGCAAUAUUACGAGGC, the “self-splicing fitness (ln)” value is, setting by setting: (30 °C) -3.62 ± 0.2; (37 °C) -1.97 ± 0.18.

Consider GCGAAGCAAUAUUACGCGGA, for which the “self-splicing fitness (ln)” value (37 °C) is -1.26 ± 0.36. Turning to GCCUAGCAAUAUUACGUGGA, the “self-splicing fitness (ln)” value (30 °C) was -0.477 ± 0.068 and the “self-splicing fitness (ln)” value (37 °C) was found to be 0.358 ± 0.076. Consider UGGAAGCAAUAUUACGUGUG, for which the “self-splicing fitness (ln)” value (30 °C) is -1.06 ± 0.073 and the “self-splicing fitness (ln)” value (37 °C) is -0.706 ± 0.091. Take AGAGAGCAAUAUUACGCGGA: where the note is “37 °C”, the “self-splicing fitness (ln)” value was -2.21 ± 0.34. On to UCUAAGCAAUAUUACGUUUC, for which the “self-splicing fitness (ln)” value (37 °C) is -2.3 ± 0.26.

CUCGAGCAAUAUUACGUGAA: the “self-splicing fitness (ln)” value reads like this: (30 °C) -2.47 ± 0.21; (37 °C) -2.93 ± 0.47. For UAGCAGCAAUAUUACGUUAU, in that order: -3.74 ± 0.23 and -2.92 ± 0.24. For UUUUAGCAAUAUUACGGGAG, in that order: -0.728 ± 0.16 and -1.79 ± 0.29. For UUUCAGCAAUAUUACGGUUA, in that order: 0.116 ± 0.071 and 0.454 ± 0.077.

AUACAGCAAUAUUACGCCUU: the “self-splicing fitness (ln)” value was -0.541 ± 0.06 (30 °C) and -0.208 ± 0.073 (37 °C).

Regarding CGUUAGCAAUAUUACGAUCG, the “self-splicing fitness (ln)” value is -0.9 ± 0.11 (30 °C) and -1.12 ± 0.14 (37 °C). As for GGAAAGCAAUAUUACGCCAC, the “self-splicing fitness (ln)” value (30 °C) is -2.68 ± 0.33.

With UGGAAGCAAUAUUACGCGUG, the “self-splicing fitness (ln)” value was -0.258 ± 0.091 (30 °C) and -0.135 ± 0.12 (37 °C). For the sequence CUACAGCAAUAUUACGGUAG, the “self-splicing fitness (ln)” value is, setting by setting: (30 °C) -3.39 ± 0.15; (37 °C) -3.06 ± 0.23.

As for CUGGAGCAAUAUUACGGUCG, the “self-splicing fitness (ln)” value is, setting by setting: (30 °C) -1.2 ± 0.087; (37 °C) -0.266 ± 0.12. Take AGCGAGCAAUAUUACGCCGU: the “self-splicing fitness (ln)” value (37 °C) is -1.24 ± 0.34.

For the sequence CAUUAGCAAUAUUACGUGUA, the “self-splicing fitness (ln)” value reads like this: (30 °C) -2.78 ± 0.18; (37 °C) -1.57 ± 0.11. For UCAUAGCAAUAUUACGGGAG, in that order: -3.39 ± 0.26 and -3.06 ± 0.29. Regarding CAGGAGCAAUAUUACGACGG, the “self-splicing fitness (ln)” value reads like this: (30 °C) -1.44 ± 0.054; (37 °C) -0.588 ± 0.053. Consider CGUAAGCAAUAUUACGAGGC, for which the “self-splicing fitness (ln)” value reads like this: (30 °C) -3.73 ± 0.32; (37 °C) -1.99 ± 0.29.

For the sequence ACACAGCAAUAUUACGUUUC, the “self-splicing fitness (ln)” value runs as follows: (30 °C) -3.61 ± 0.12; (37 °C) -2.28 ± 0.14.

Consider ACGAAGCAAUAUUACGCCCG, for which the “self-splicing fitness (ln)” value was -0.0902 ± 0.13 (30 °C) and -0.0289 ± 0.14 (37 °C).

For GUCUAGCAAUAUUACGAUUU, the “self-splicing fitness (ln)” value runs as follows: (30 °C) -0.743 ± 0.056; (37 °C) 0.36 ± 0.064. With UCCAAGCAAUAUUACGGACG, the “self-splicing fitness (ln)” value is, setting by setting: (30 °C) -4.26 ± 0.2; (37 °C) -2.82 ± 0.16. For CACCAGCAAUAUUACGAAGU, in that order: -3.79 ± 0.16 and -1.46 ± 0.11.
